Source: the supplement of paper PMC9170038

Test system: MS2 coat protein
Assay: apparent KD of MS2 coat protein; designed switch direction (-1 OFF switch, 1 ON switch): -1; higher = weaker reporter binding
Method in brief: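 Stalled E. coli RNA polymerase transcribed designed RNA switches on Illumina chips, which were then titrated with SNAP-549-labelled MS2 coat protein, doubling from 0.7 or 1.5 nM to 3 µM. Steps lasted from 0.8–1.5 h at the lowest concentration to 10–20 min at the highest. The apparent KD is each design's median over clusters of curve-fitted normalised fluorescence.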

[1] = Eterna round: R95, input ligand: microRNA oligo, concentration not stated
[2] = input ligand: microRNA oligo, concentration not stated
[3] = Eterna round: R95, input ligand: FMN 200 uM
[4] = Eterna round: R95, input ligand: none

In the case of “GUCAUCACACAUGGGAUCAACAUGAGGAUCACCCAUGUUGCCAAGUUUUUUGCACGUCUUAUAAUACGUUUGAUGAG [Mod-Jxe] (Eterna round: R97, puzzle: Sensor, turn-off variant 1)”, the “apparent KD of MS2 coat protein” value (input ligand: FMN 200 uM) is reported as 31.7 nM and the “apparent KD of MS2 coat protein” value (input ligand: none) is reported as 29.9 nM.
For “GUCAUGAUUGUGAGGAUAUUUCAUAGAUAGAUGUUAGAGAAGGUACAUGAGGAUCACCCAUGUGUGAUCAGACA [Brourd's EX4 #74] (Eterna round: R97, puzzle: Brourd's mod of Exclusion 4)”, the “apparent KD of MS2 coat protein” value (input ligand: FMN 200 uM) was 336 nM and the “apparent KD of MS2 coat protein” value (input ligand: none) was 478 nM.
With “GUCCUACAUGAGGAUCACCCAUGUGAGGAUAUGGUUUCGCUGGCCGUAGCCAGUGGAACCAGAAGGCGCAUGAU [Mat - Exclusion 1 - JL Mod - D1] (Eterna round: R97, puzzle: Exclusion 1)” the “apparent KD of MS2 coat protein” value (input ligand: FMN 200 uM) was 106 nM and the “apparent KD of MS2 coat protein” value (input ligand: none) was 25.9 nM.
For “GUCGCCAGUGUCAGGAUAUGAUGGCCUCGACGCCGUUAGAAGGGACAUGAGGAUCACCCAUGUAACAAGCGACG [Eternabot (Original) Solution 42] (Eterna round: R97, puzzle: Brourd's mod of Exclusion 4)”, the “apparent KD of MS2 coat protein” value (input ligand: FMN 200 uM) was 31.3 nM and the “apparent KD of MS2 coat protein” value (input ligand: none) was 27.8 nM.
In the case of “GUCGCGUGGGUGUGGGAGGACAUGAGGAUCACCCAUGUGACUACCAAGCUUUUUGCUCCUCUUAGGUCCAUGGGAAG [Random] (Eterna round: R97, puzzle: Sensor, turn-off variant 1)”, the “apparent KD of MS2 coat protein” value (input ligand: FMN 200 uM) is reported as 67 nM and the “apparent KD of MS2 coat protein” value (input ligand: none) is reported as 109 nM.
For “GUCGCUAGAGGAUAUACAAUGGUAUAUGAUCCUAGUGACAUACAUGAGGAUCACCCAUGUAGAAGGCUAGUAAU [Exclusion 2 - 7] (puzzle: Exclusion 2)”, the “apparent KD of MS2 coat protein” value [1] was 24.8 nM.
“GUCGUGCGGCAGUGCUGUACGAGUACAUGAGGAUCACCCAUGUAGGAUAUGGUUCGUUUUGCGUGCUAGAAGGGCGUGCGUUUU [Excl-NG3-LRO18] (Eterna round: R96, puzzle: Exclusion NG 3)” was tested, and the “apparent KD of MS2 coat protein” value (input ligand: FMN 200 uM) was 18 nM, the “apparent KD of MS2 coat protein” value [2] was 15.8 nM and the “apparent KD of MS2 coat protein” value (input ligand: none) was 24.8 nM.
In the case of “GUCGUGUUAGGAUAUGCAUGUGGACGAUGUUCUCCGCCGGUGUAGAAGGAACAUGAGGAUCACCCAUGUGCCUA [Eternabot (L1) Solution 79] (Eterna round: R97, puzzle: Exclusion 4)”, the “apparent KD of MS2 coat protein” value (input ligand: FMN 200 uM) is reported as 45.6 nM and the “apparent KD of MS2 coat protein” value (input ligand: none) is reported as 52.5 nM.
With “GUCUACGCAGGAUAUAUCCCUCAGGACAUGAGGAUCACCCAUGUCUCCUUAUGCCUUCCCAUAGAAGGGCGUAGAA [Eternabot (L1) Solution 82] (Eterna round: R97, puzzle: Exclusion 5)” the “apparent KD of MS2 coat protein” value (input ligand: FMN 200 uM) was 12.6 nM and the “apparent KD of MS2 coat protein” value (input ligand: none) was 13.2 nM.
With “GUCUCGUGAGGAUAUCAUGAUUGACUUAAUUUAUUUUAGCGUGAGAAGGCACAUGAGGAUCACCCAUGUGAUUC [Ex4 - 3 - 5] (puzzle: Exclusion 4)” the “apparent KD of MS2 coat protein” value [1] was 17.1 nM.
With “GUCUCGUGAGGAUAUGACGCUACUUUUUUGUUUUAGUAGAGUCAGAAGGCACAUGAGGAUCACCCAUGUGAUUC [Ex4 - 3 - 4] (puzzle: Exclusion 4)” the “apparent KD of MS2 coat protein” value [1] was 56 nM.
“GUCUGCACGCUGCGGUCCUACAUGAGGAUCACCCAUGUGGUCUGGUGGCGUGGGUCGCCGGACUUGGCUCGUCUUGA [salish99_S_TOV1_R5_045] (Eterna round: R97, puzzle: Sensor, turn-off variant 1)” was tested, and the “apparent KD of MS2 coat protein” value (input ligand: FMN 200 uM) was 16.5 nM and the “apparent KD of MS2 coat protein” value (input ligand: none) was 15.9 nM.
With “GUCUGCACGCUGCGGUCCUACAUGAGGAUCACCCAUGUGGUCUGGUGGCGUGGGUCGCCGGACUUGGCUCGUCUUGG [salish99_S_TOV1_R5_048] (Eterna round: R97, puzzle: Sensor, turn-off variant 1)” the “apparent KD of MS2 coat protein” value (input ligand: FMN 200 uM) was 14.8 nM and the “apparent KD of MS2 coat protein” value (input ligand: none) was 14.7 nM.
“GUGAAACAUGAGGAUCACCCAUGUGAGGAUAUGAUACUAUGUACUUCGGUACAUAGUAUCAGAAGGCACAGUGA [Ex1-3: 6] (puzzle: Exclusion 1)” was tested, and the “apparent KD of MS2 coat protein” value [1] was 65.4 nM.
With “GUGAAACAUGAGGAUCACCCAUGUGAGGAUAUGAUUUAGUAAUGAUGAAAGUAAAUAUUCAGAAGGCACAAUGG [Mat - Mod of JL D71] (puzzle: Exclusion 1)” the “apparent KD of MS2 coat protein” value [3] was 74.2 nM, the “apparent KD of MS2 coat protein” value [1] was 92.7 nM and the “apparent KD of MS2 coat protein” value [4] was 90.2 nM.
For “GUGAAGAAGUUAGUGGCCUACAUGAGGAUCACCCAUGUGAGGGAAAUGUUGAGGCGAAAGUUGUGUGCUCGUCUGUA [JR_SV3TOV1_Sub040] (puzzle: Sensor v3, turn-off variant 1)”, the “apparent KD of MS2 coat protein” value [3] was 27.1 nM, the “apparent KD of MS2 coat protein” value [1] was 52.1 nM and the “apparent KD of MS2 coat protein” value [4] was 31.1 nM.
For “GUGACACAUGAGGAUCACCCAUGUGAGGAUAUAUCCGACUAUGAAAGGGUGUAGCAGGAUAGAAGGUACUGGCG [Eternabot (L2) Solution 54] (Eterna round: R97, puzzle: Exclusion 1)”, the “apparent KD of MS2 coat protein” value (input ligand: FMN 200 uM) was 83.1 nM and the “apparent KD of MS2 coat protein” value (input ligand: none) was 104 nM.
With “GUGACACAUGAGGAUCACCCAUGUGAGGAUAUGAUACUAUGUACUUCGGUACAUAGUAUCAGAAGGCACAGUGA [Ex1-3: 7] (puzzle: Exclusion 1)” the “apparent KD of MS2 coat protein” value [1] was 43.2 nM.
“GUGAGCAGACGGAGAUCCAACAUGAGGAUCACCCAUGUCUCAUAAGCUUUUUGCUCAUCUUAUUGUACCUUGGUGCU [Mat - Sensor v3 - turn-off var 1 - JL Mod - D20] (puzzle: Sensor v3, turn-off variant 1)” was tested, and the “apparent KD of MS2 coat protein” value [3] was 291 nM, the “apparent KD of MS2 coat protein” value [1] was 8.27 nM and the “apparent KD of MS2 coat protein” value [4] was 253 nM.
With “GUGCUACAUGAGGAUCACCCAUGUCAGGAUAUGCGAAUUUCAUCAAAAGAUGAAAUUUGCAGAAGGGACAACAC [Omei Ex1 A18] (Eterna round: R97, puzzle: Exclusion 1)” the “apparent KD of MS2 coat protein” value (input ligand: FMN 200 uM) was 88.2 nM and the “apparent KD of MS2 coat protein” value (input ligand: none) was 38.5 nM.
“GUGCUAUGAGGAUAUACGUUGGUGGGCAUCUGUGUGCUCCUACAUGAGGAUCACCCAUGUAGAAGGCAUGUCAC [LRO-Excl2-20] (Eterna round: R96, puzzle: Exclusion 2)” was tested, and the “apparent KD of MS2 coat protein” value (input ligand: FMN 200 uM) was 22.9 nM, the “apparent KD of MS2 coat protein” value [2] was 9.33 nM and the “apparent KD of MS2 coat protein” value (input ligand: none) was 14.1 nM.
For “GUGCUAUGAGGAUAUACGUUGGUGGGCAUCUGUGUGCUCCUACAUGAGGAUCACCCAUGUAGAAGGCAUGUCAC [LRO-Excl2-20] (puzzle: Exclusion 2)”, the “apparent KD of MS2 coat protein” value [1] was 11.9 nM.
“GUGGAACAUGAGGAUCACCCAUGUGAGGAUAUGUGAGAAGGAUUUGAGAUGGAGAGGGACAGAAGGCACUAGGA [JR_Exclu1_Sub083] (puzzle: Exclusion 1)” was tested, and the “apparent KD of MS2 coat protein” value [3] was 36.3 nM, the “apparent KD of MS2 coat protein” value [1] was 39.4 nM and the “apparent KD of MS2 coat protein” value [4] was 55.8 nM.
“GUGGAACAUGAGGAUCACCCAUGUGAGGAUAUGUGUGAAUAGAGGAGAAGAAGAGAGAACAGAAGGCACGGAGG [JR_Exclu1_Sub066] (puzzle: Exclusion 1)” was tested, and the “apparent KD of MS2 coat protein” value [3] was 53.3 nM, the “apparent KD of MS2 coat protein” value [1] was 73.4 nM and the “apparent KD of MS2 coat protein” value [4] was 93.3 nM.
For “GUGGUACAUGAGGAUCACCCAUGUAAGGAUAUAGUCGUCUGGUGGUCGCGGGUGGUGGCUAGAAGGUGCGUGCG [-19.6, -16.8 kcal, A 19%] (Eterna round: R97, puzzle: Exclusion 1)”, the “apparent KD of MS2 coat protein” value (input ligand: FMN 200 uM) was 93.9 nM and the “apparent KD of MS2 coat protein” value (input ligand: none) was 125 nM.
With “GUGGUACAUGAGGAUCACCCAUGUCAGGAUAUCGUGUGUUUUUUUUCGGCCGCGCGUGCGAGAAGGGACGUCUU (puzzle: Exclusion 1)” the “apparent KD of MS2 coat protein” value [1] was 17.3 nM.
With “GUGGUACAUGAGGAUCACCCAUGUGAGGAUAUAGUCGGCUGGUGGUCGCGGGUGGUGGCUAGAAGGUGCGUGCG [-19.3, -16.9 kcal, A 18%] (Eterna round: R97, puzzle: Exclusion 1)” the “apparent KD of MS2 coat protein” value (input ligand: FMN 200 uM) was 171 nM and the “apparent KD of MS2 coat protein” value (input ligand: none) was 179 nM.
For “GUGUACAGAGGAUAUAUAUGAGCAUGGAAACAUGCAAGAUCACAUGAGGAUCACCCAUGUAGAAGGCUGUACAC [Ex2: 736] (Eterna round: R96, puzzle: Exclusion 2)”, the “apparent KD of MS2 coat protein” value (input ligand: FMN 200 uM) was 861 nM, the “apparent KD of MS2 coat protein” value [2] was 99.3 nM and the “apparent KD of MS2 coat protein” value (input ligand: none) was 112 nM.
For “GUGUACAGAGGAUAUGCACGAGUAGUUACGAAAGUAACUACACAUGAGGAUCACCCAUGUAGAAGGCUGUACAC [Dot plot directed v1] (puzzle: Exclusion 2)”, the “apparent KD of MS2 coat protein” value [1] was 13.3 nM.
For “GUGUACGCAGGAUAUACAUGAGGAUCACCCAUGUGAAUAAGAUAGAAUAAGAUAAAGUGUAGAAGGGCGAGUGU [Excluse me!!! 5 - Jieux - Exclusion 3] (puzzle: Exclusion 3)”, the “apparent KD of MS2 coat protein” value [1] was 28.3 nM.
With “GUGUACGGAGGAUAUGCUGGAAUCUAGCGAAGCUAGGUUCCACAUGAGGAUCACCCAUGUAGAAGGCUGUACAC [Dot plot directed A v5] (puzzle: Exclusion 2)” the “apparent KD of MS2 coat protein” value [1] was 21.1 nM.
In the case of “GUGUAGAUAGGAUAUGCUUUGAGCUUAUGAGAGUAUGCUCGACAUGAGGAUCACCCAUGUAGAAGGGUUUACAC [LRO-Excl2-04] (puzzle: Exclusion 2)”, the “apparent KD of MS2 coat protein” value [1] is reported as 68.5 nM.
For “GUGUAGGGAGGAUAUACAUGAGGAUCACCCAUGUGAAUAAGAUAGAAUAAGAUAAAGUGUAGAAGGCUUAGUGU [Excluse me!!! 24 - Jieux - Exclusion 3] (puzzle: Exclusion 3)”, the “apparent KD of MS2 coat protein” value [3] was 49.6 nM, the “apparent KD of MS2 coat protein” value [1] was 53 nM and the “apparent KD of MS2 coat protein” value [4] was 67.9 nM.
For “GUGUCACAUGAGGAUCACCCAUGUGAGGAUAUCAUGCUUCGUAGUAAACUACGAAGUGUGAGAAGGCACAUGAC [Omei Ex1 E1] (Eterna round: R97, puzzle: Exclusion 1)”, the “apparent KD of MS2 coat protein” value (input ligand: FMN 200 uM) was 71 nM and the “apparent KD of MS2 coat protein” value (input ligand: none) was 47.8 nM.
With “GUGUGAAGUUAGGAUAUGAUCGGACAAGAGCCUUCAGAAGGGACCACAUGAGGAUCACCCAUGUUGUCGGUGGC [Eternabot (L1) Solution 41] (Eterna round: R97, puzzle: Exclusion 6)” the “apparent KD of MS2 coat protein” value (input ligand: FMN 200 uM) was 20.5 nM and the “apparent KD of MS2 coat protein” value (input ligand: none) was 18.6 nM.
“GUGUGACAUGAGGAUCACCCAUGUGAGGAUAUCAUGCUUCGUAGUAAACUACGAAGUGUGAGAAGGCACAUAAC [Omei Ex1 E8] (Eterna round: R97, puzzle: Exclusion 1)” was tested, and the “apparent KD of MS2 coat protein” value (input ligand: FMN 200 uM) was 678 nM and the “apparent KD of MS2 coat protein” value (input ligand: none) was 122 nM.
